From the supplement of paper PMC10065799, “High-throughput profiling of sequence recognition by tyrosine kinases and SH2 domains using bacterial peptide display” (eLife, 2023)
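Note: 11-residue human phosphosite peptides and single-mutation variants displayed on the E. coli surface, counted by deep sequencing, each peptide's frequency after selection divided by its frequency in the unselected input library; frequency after pTyr selection over input frequency; kinase dosed for 20-30% of maximal phosphorylation in three min.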

These sequences were tested on AncSZ (assay: phosphorylation enrichment, bacterial display (enrichment ratio); higher = better substrate or ligand; peptides without Tyr show the background).
PPSELYFVKVD [TERT_Y707_P704S] gave a phosphorylation enrichment of 1.19. TAIFIYIRPKA [OR10C1_Y258_L255I] was tested, and the phosphorylation enrichment was 1.79. Work on LENSTYQYIHV [CRB1_Y760_R764H] yielded a phosphorylation enrichment of 2.84. Sequence LFMGDYVDRGY [PPP2CA_Y86] has a phosphorylation enrichment of 1.6. Work on RAMRRYLEWGE [ERBB3_Y680_R683W] yielded a phosphorylation enrichment of 0.514. QVMDGYPMPIG [MMP14_Y353] gave a phosphorylation enrichment of 0.861. With STDDGCIDLQF [TMEM230_Y29_Y29C] the phosphorylation enrichment was 1.14. In the case of FDGKEYDPVEA [MAPRE2_Y167_YF], the phosphorylation enrichment is reported as 1.5. CTTIHYHYMCN [TP53_Y234_N235H] showed a phosphorylation enrichment of 0.964. For TGVRDYIHVVD [GALE_Y241], the phosphorylation enrichment was 0.846. ISIFFYAKGQP [MPZ_Y82_H81Y_YF] gave a phosphorylation enrichment of 1.33. In the case of HRDSSYFWEIE [RAF1_Y340_Q335H_YF], the phosphorylation enrichment is reported as 1.34. Sequence GFSRHYEDGFP [CTNND1_Y217_YF] has a phosphorylation enrichment of 0.619. MKALGYFAVGT [OPA1_Y498_V502G] was tested, and the phosphorylation enrichment was 0.798. With PEFMVYKPQME [CCRL2_Y170_V168M] the phosphorylation enrichment was 1.03. ALARKYHGGGG [HBB_Y146_H144R] was tested, and the phosphorylation enrichment was 0.372.

The sequences below were run against EPHB1 (UniProt P54762) in the same assay as above.
Chain of EPHB1 (P54762 whole entry, looked up): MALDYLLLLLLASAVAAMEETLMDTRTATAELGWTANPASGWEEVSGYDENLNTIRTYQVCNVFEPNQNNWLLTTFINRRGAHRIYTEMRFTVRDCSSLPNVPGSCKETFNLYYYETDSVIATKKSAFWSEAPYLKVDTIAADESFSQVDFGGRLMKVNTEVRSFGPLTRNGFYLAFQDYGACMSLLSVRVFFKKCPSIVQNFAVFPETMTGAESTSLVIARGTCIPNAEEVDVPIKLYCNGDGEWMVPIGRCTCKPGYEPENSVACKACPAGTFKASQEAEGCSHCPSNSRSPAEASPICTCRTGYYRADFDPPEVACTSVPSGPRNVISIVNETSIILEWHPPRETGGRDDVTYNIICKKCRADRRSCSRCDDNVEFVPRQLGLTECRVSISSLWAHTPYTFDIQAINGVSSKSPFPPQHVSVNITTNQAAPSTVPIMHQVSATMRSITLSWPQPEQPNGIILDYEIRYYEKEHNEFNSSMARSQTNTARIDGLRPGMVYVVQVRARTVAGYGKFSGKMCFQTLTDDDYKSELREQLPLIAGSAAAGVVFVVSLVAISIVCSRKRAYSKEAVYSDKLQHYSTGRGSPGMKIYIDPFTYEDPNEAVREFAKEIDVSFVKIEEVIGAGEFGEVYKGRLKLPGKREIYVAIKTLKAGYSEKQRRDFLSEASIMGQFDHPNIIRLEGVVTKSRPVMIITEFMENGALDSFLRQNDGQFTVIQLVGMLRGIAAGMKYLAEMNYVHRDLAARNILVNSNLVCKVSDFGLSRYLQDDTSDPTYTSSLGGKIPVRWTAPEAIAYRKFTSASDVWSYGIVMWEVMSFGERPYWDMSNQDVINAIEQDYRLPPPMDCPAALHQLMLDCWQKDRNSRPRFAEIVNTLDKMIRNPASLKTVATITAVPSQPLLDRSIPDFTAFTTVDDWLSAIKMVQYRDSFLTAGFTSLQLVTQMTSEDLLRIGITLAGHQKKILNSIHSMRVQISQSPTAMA
With PPSELYFVKVD [TERT_Y707_P704S] the phosphorylation enrichment was 0.699. TAIFIYIRPKA [OR10C1_Y258_L255I] showed a phosphorylation enrichment of 0.414. Sequence LENSTYQYIHV [CRB1_Y760_R764H] has a phosphorylation enrichment of 11.2. LFMGDYVDRGY [PPP2CA_Y86] gave a phosphorylation enrichment of 0.983. RAMRRYLEWGE [ERBB3_Y680_R683W] was tested, and the phosphorylation enrichment was 0.403. With QVMDGYPMPIG [MMP14_Y353] the phosphorylation enrichment was 0.673. In the case of STDDGCIDLQF [TMEM230_Y29_Y29C], the phosphorylation enrichment is reported as 0.492. For FDGKEYDPVEA [MAPRE2_Y167_YF], the phosphorylation enrichment was 0.636. CTTIHYHYMCN [TP53_Y234_N235H] gave a phosphorylation enrichment of 0.551. For TGVRDYIHVVD [GALE_Y241], the phosphorylation enrichment was 0.499. Work on ISIFFYAKGQP [MPZ_Y82_H81Y_YF] yielded a phosphorylation enrichment of 0.608. HRDSSYFWEIE [RAF1_Y340_Q335H_YF] gave a phosphorylation enrichment of 0.59. With GFSRHYEDGFP [CTNND1_Y217_YF] the phosphorylation enrichment was 0.432. MKALGYFAVGT [OPA1_Y498_V502G] showed a phosphorylation enrichment of 0.469. For PEFMVYKPQME [CCRL2_Y170_V168M], the phosphorylation enrichment was 0.665. ALARKYHGGGG [HBB_Y146_H144R] gave a phosphorylation enrichment of 0.418.

Each sequence was assayed against EPHB2 (UniProt P29323) in the same assay as above.
Chain of EPHB2 (P29323 whole entry, looked up): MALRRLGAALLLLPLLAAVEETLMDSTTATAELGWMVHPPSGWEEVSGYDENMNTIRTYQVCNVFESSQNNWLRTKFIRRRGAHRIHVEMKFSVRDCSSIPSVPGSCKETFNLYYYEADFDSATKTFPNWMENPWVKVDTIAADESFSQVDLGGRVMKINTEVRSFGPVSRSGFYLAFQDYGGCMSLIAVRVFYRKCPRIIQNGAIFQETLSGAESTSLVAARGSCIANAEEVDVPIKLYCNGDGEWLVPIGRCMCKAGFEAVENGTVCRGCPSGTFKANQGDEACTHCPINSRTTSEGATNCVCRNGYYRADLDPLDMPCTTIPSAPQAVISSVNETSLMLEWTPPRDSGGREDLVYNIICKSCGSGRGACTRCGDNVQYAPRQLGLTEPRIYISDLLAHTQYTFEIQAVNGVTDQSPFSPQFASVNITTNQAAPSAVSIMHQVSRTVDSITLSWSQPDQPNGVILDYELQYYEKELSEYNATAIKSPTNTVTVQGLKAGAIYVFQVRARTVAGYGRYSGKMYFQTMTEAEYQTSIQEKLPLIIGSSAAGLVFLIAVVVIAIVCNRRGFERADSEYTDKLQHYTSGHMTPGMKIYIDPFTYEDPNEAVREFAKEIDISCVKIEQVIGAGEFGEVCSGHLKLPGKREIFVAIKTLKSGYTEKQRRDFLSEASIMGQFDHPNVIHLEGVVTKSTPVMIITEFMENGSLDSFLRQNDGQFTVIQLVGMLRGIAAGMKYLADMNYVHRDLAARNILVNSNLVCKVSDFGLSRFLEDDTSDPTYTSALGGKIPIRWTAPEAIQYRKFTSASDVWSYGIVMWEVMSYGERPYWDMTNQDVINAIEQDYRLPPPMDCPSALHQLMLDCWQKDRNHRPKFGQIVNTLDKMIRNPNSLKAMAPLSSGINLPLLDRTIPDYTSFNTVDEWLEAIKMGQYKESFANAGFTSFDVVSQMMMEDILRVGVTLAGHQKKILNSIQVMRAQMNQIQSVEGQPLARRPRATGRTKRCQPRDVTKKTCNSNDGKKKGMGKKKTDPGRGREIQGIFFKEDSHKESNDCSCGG
PPSELYFVKVD [TERT_Y707_P704S] was tested, and the phosphorylation enrichment was 0.965. Work on TAIFIYIRPKA [OR10C1_Y258_L255I] yielded a phosphorylation enrichment of 0.68. In the case of LENSTYQYIHV [CRB1_Y760_R764H], the phosphorylation enrichment is reported as 5.17. With LFMGDYVDRGY [PPP2CA_Y86] the phosphorylation enrichment was 0.977. Work on RAMRRYLEWGE [ERBB3_Y680_R683W] yielded a phosphorylation enrichment of 0.398. QVMDGYPMPIG [MMP14_Y353] gave a phosphorylation enrichment of 0.511. STDDGCIDLQF [TMEM230_Y29_Y29C] was tested, and the phosphorylation enrichment was 0.636. For FDGKEYDPVEA [MAPRE2_Y167_YF], the phosphorylation enrichment was 0.545. With CTTIHYHYMCN [TP53_Y234_N235H] the phosphorylation enrichment was 0.425. In the case of TGVRDYIHVVD [GALE_Y241], the phosphorylation enrichment is reported as 0.531. For ISIFFYAKGQP [MPZ_Y82_H81Y_YF], the phosphorylation enrichment was 0.611. HRDSSYFWEIE [RAF1_Y340_Q335H_YF] gave a phosphorylation enrichment of 0.629. GFSRHYEDGFP [CTNND1_Y217_YF] was tested, and the phosphorylation enrichment was 0.451. MKALGYFAVGT [OPA1_Y498_V502G] was tested, and the phosphorylation enrichment was 0.486. Work on PEFMVYKPQME [CCRL2_Y170_V168M] yielded a phosphorylation enrichment of 0.624. For ALARKYHGGGG [HBB_Y146_H144R], the phosphorylation enrichment was 0.307.

What follows are sequences tested against FGFR1 (UniProt P11362) in the same assay as above.
Chain of FGFR1 (P11362 whole entry, looked up): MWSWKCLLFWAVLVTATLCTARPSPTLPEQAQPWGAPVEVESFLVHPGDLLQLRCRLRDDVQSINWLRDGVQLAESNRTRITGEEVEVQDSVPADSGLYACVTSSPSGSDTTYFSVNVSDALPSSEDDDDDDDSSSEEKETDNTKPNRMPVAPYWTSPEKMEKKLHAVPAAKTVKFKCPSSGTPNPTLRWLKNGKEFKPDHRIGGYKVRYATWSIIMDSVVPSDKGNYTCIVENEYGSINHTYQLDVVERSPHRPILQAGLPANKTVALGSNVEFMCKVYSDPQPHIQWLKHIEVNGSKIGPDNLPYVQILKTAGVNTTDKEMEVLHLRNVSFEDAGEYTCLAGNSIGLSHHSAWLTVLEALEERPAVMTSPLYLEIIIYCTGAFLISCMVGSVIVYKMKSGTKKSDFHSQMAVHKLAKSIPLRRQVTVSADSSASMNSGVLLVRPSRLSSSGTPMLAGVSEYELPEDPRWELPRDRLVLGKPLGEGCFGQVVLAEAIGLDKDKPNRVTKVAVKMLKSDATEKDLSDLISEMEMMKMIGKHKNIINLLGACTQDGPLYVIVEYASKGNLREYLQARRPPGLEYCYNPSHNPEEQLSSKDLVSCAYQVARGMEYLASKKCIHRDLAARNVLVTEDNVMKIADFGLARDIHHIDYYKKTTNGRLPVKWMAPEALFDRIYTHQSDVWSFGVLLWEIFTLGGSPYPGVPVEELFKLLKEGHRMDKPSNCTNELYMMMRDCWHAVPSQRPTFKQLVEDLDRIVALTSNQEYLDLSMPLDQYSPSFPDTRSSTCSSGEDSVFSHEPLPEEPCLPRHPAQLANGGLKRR
Work on PPSELYFVKVD [TERT_Y707_P704S] yielded a phosphorylation enrichment of 0.815. For TAIFIYIRPKA [OR10C1_Y258_L255I], the phosphorylation enrichment was 0.518. With LENSTYQYIHV [CRB1_Y760_R764H] the phosphorylation enrichment was 9.48. LFMGDYVDRGY [PPP2CA_Y86] showed a phosphorylation enrichment of 1.46. Work on RAMRRYLEWGE [ERBB3_Y680_R683W] yielded a phosphorylation enrichment of 0.427. For QVMDGYPMPIG [MMP14_Y353], the phosphorylation enrichment was 0.529. Work on STDDGCIDLQF [TMEM230_Y29_Y29C] yielded a phosphorylation enrichment of 0.613. For FDGKEYDPVEA [MAPRE2_Y167_YF], the phosphorylation enrichment was 0.545. In the case of CTTIHYHYMCN [TP53_Y234_N235H], the phosphorylation enrichment is reported as 0.568. TGVRDYIHVVD [GALE_Y241] was tested, and the phosphorylation enrichment was 0.587. Work on ISIFFYAKGQP [MPZ_Y82_H81Y_YF] yielded a phosphorylation enrichment of 0.544. With HRDSSYFWEIE [RAF1_Y340_Q335H_YF] the phosphorylation enrichment was 1.02. Sequence GFSRHYEDGFP [CTNND1_Y217_YF] has a phosphorylation enrichment of 0.352. MKALGYFAVGT [OPA1_Y498_V502G] was tested, and the phosphorylation enrichment was 0.479. Work on PEFMVYKPQME [CCRL2_Y170_V168M] yielded a phosphorylation enrichment of 0.592. Work on ALARKYHGGGG [HBB_Y146_H144R] yielded a phosphorylation enrichment of 0.353.

What follows are sequences tested against FGFR3 (UniProt P22607) in the same assay as above.
Chain of FGFR3 (P22607 whole entry, looked up): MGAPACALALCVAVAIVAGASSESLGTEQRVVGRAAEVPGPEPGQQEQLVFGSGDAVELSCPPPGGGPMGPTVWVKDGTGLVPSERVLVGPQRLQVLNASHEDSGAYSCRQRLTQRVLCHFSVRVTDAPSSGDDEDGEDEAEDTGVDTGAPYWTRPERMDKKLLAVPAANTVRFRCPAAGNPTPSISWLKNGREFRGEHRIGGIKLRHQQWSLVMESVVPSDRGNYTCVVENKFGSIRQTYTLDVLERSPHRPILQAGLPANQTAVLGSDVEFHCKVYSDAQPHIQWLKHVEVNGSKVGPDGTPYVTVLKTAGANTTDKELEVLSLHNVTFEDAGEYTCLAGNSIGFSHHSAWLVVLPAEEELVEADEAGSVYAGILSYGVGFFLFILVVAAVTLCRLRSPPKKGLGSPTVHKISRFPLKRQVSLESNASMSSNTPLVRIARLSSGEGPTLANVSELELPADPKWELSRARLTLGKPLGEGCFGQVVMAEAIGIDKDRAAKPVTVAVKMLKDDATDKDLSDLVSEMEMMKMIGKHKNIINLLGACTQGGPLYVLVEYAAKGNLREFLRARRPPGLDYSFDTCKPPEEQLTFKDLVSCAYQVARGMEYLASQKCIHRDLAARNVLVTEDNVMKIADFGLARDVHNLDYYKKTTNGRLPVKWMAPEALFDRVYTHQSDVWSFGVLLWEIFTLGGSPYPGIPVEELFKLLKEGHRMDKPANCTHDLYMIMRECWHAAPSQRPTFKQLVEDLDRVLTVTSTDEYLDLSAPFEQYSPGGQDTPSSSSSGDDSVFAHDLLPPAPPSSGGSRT
PPSELYFVKVD [TERT_Y707_P704S] showed a phosphorylation enrichment of 0.92. Sequence TAIFIYIRPKA [OR10C1_Y258_L255I] has a phosphorylation enrichment of 0.814. LENSTYQYIHV [CRB1_Y760_R764H] gave a phosphorylation enrichment of 5.6. LFMGDYVDRGY [PPP2CA_Y86] gave a phosphorylation enrichment of 1.02. RAMRRYLEWGE [ERBB3_Y680_R683W] showed a phosphorylation enrichment of 0.314. QVMDGYPMPIG [MMP14_Y353] gave a phosphorylation enrichment of 0.629. In the case of STDDGCIDLQF [TMEM230_Y29_Y29C], the phosphorylation enrichment is reported as 0.797. FDGKEYDPVEA [MAPRE2_Y167_YF] was tested, and the phosphorylation enrichment was 0.801. CTTIHYHYMCN [TP53_Y234_N235H] was tested, and the phosphorylation enrichment was 0.667. For TGVRDYIHVVD [GALE_Y241], the phosphorylation enrichment was 0.593. For ISIFFYAKGQP [MPZ_Y82_H81Y_YF], the phosphorylation enrichment was 0.865. HRDSSYFWEIE [RAF1_Y340_Q335H_YF] gave a phosphorylation enrichment of 0.984. GFSRHYEDGFP [CTNND1_Y217_YF] gave a phosphorylation enrichment of 0.563. MKALGYFAVGT [OPA1_Y498_V502G] was tested, and the phosphorylation enrichment was 0.64. Work on PEFMVYKPQME [CCRL2_Y170_V168M] yielded a phosphorylation enrichment of 0.867. Sequence ALARKYHGGGG [HBB_Y146_H144R] has a phosphorylation enrichment of 0.33.

These sequences were tested on Fer (mouse) in the same assay as above.
With PPSELYFVKVD [TERT_Y707_P704S] the phosphorylation enrichment was 0.815. Work on TAIFIYIRPKA [OR10C1_Y258_L255I] yielded a phosphorylation enrichment of 0.584. LENSTYQYIHV [CRB1_Y760_R764H] gave a phosphorylation enrichment of 17.8. Sequence LFMGDYVDRGY [PPP2CA_Y86] has a phosphorylation enrichment of 0.612. For RAMRRYLEWGE [ERBB3_Y680_R683W], the phosphorylation enrichment was 0.834. QVMDGYPMPIG [MMP14_Y353] showed a phosphorylation enrichment of 0.53. For STDDGCIDLQF [TMEM230_Y29_Y29C], the phosphorylation enrichment was 0.55. Work on FDGKEYDPVEA [MAPRE2_Y167_YF] yielded a phosphorylation enrichment of 0.631. Sequence CTTIHYHYMCN [TP53_Y234_N235H] has a phosphorylation enrichment of 0.523. In the case of TGVRDYIHVVD [GALE_Y241], the phosphorylation enrichment is reported as 0.413. In the case of ISIFFYAKGQP [MPZ_Y82_H81Y_YF], the phosphorylation enrichment is reported as 0.554. With HRDSSYFWEIE [RAF1_Y340_Q335H_YF] the phosphorylation enrichment was 0.497. GFSRHYEDGFP [CTNND1_Y217_YF] gave a phosphorylation enrichment of 0.574. Sequence MKALGYFAVGT [OPA1_Y498_V502G] has a phosphorylation enrichment of 0.395. For PEFMVYKPQME [CCRL2_Y170_V168M], the phosphorylation enrichment was 0.476. Sequence ALARKYHGGGG [HBB_Y146_H144R] has a phosphorylation enrichment of 0.444.

The sequences below were run against Fes (UniProt P07332) in the same assay as above.
Chain of Fes (P07332 whole entry, looked up): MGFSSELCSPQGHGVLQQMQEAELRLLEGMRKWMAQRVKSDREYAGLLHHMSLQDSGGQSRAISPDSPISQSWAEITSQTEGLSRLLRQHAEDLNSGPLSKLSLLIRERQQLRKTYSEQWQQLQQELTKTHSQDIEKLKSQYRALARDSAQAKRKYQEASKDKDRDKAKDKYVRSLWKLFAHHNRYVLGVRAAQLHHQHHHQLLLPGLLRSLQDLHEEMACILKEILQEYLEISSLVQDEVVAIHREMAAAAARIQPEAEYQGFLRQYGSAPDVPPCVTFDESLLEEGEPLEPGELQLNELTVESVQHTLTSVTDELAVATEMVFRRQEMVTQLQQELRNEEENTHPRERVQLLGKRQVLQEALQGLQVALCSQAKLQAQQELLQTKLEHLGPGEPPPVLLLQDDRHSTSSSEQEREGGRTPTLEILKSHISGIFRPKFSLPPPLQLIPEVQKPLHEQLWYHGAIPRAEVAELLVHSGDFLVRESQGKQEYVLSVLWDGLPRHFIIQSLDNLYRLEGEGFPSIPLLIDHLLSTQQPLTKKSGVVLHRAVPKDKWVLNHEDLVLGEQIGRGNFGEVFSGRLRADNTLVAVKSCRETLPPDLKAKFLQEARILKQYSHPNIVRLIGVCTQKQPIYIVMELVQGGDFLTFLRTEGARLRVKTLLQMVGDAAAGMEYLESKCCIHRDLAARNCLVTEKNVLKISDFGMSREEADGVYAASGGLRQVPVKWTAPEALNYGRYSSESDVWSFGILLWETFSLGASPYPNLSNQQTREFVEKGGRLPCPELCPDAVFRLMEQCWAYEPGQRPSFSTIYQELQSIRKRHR
For PPSELYFVKVD [TERT_Y707_P704S], the phosphorylation enrichment was 1.63. Sequence TAIFIYIRPKA [OR10C1_Y258_L255I] has a phosphorylation enrichment of 1.39. For LENSTYQYIHV [CRB1_Y760_R764H], the phosphorylation enrichment was 1.68. Work on LFMGDYVDRGY [PPP2CA_Y86] yielded a phosphorylation enrichment of 1.47. RAMRRYLEWGE [ERBB3_Y680_R683W] showed a phosphorylation enrichment of 0.561. With QVMDGYPMPIG [MMP14_Y353] the phosphorylation enrichment was 0.964. Work on STDDGCIDLQF [TMEM230_Y29_Y29C] yielded a phosphorylation enrichment of 1.13. With FDGKEYDPVEA [MAPRE2_Y167_YF] the phosphorylation enrichment was 1.43. For CTTIHYHYMCN [TP53_Y234_N235H], the phosphorylation enrichment was 0.963. TGVRDYIHVVD [GALE_Y241] gave a phosphorylation enrichment of 1.01. ISIFFYAKGQP [MPZ_Y82_H81Y_YF] gave a phosphorylation enrichment of 1.52. HRDSSYFWEIE [RAF1_Y340_Q335H_YF] showed a phosphorylation enrichment of 1.8. GFSRHYEDGFP [CTNND1_Y217_YF] was tested, and the phosphorylation enrichment was 0.739. In the case of MKALGYFAVGT [OPA1_Y498_V502G], the phosphorylation enrichment is reported as 0.973. PEFMVYKPQME [CCRL2_Y170_V168M] showed a phosphorylation enrichment of 1.06. ALARKYHGGGG [HBB_Y146_H144R] showed a phosphorylation enrichment of 0.408.

What follows are sequences tested against Fyn (UniProt P06241) in the same assay as above.
Chain of Fyn (P06241 whole entry, looked up): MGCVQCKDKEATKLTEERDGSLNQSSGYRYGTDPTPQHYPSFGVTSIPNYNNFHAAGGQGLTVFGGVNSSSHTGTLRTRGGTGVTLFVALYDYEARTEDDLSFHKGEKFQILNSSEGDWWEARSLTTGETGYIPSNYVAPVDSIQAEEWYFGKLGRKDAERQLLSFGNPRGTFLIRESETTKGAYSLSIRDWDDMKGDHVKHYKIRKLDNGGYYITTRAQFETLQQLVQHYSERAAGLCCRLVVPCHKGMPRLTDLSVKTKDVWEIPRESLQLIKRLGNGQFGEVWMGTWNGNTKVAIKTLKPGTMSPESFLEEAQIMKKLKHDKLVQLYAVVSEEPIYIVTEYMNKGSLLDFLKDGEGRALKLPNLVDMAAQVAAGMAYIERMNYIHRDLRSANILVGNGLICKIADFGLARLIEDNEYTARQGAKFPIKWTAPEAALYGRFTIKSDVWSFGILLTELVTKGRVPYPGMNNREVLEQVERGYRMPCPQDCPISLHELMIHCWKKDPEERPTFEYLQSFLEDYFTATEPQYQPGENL
For PPSELYFVKVD [TERT_Y707_P704S], the phosphorylation enrichment was 0.784. For TAIFIYIRPKA [OR10C1_Y258_L255I], the phosphorylation enrichment was 0.615. For LENSTYQYIHV [CRB1_Y760_R764H], the phosphorylation enrichment was 3.32. Work on LFMGDYVDRGY [PPP2CA_Y86] yielded a phosphorylation enrichment of 0.699. With RAMRRYLEWGE [ERBB3_Y680_R683W] the phosphorylation enrichment was 0.553. Work on QVMDGYPMPIG [MMP14_Y353] yielded a phosphorylation enrichment of 0.564. For STDDGCIDLQF [TMEM230_Y29_Y29C], the phosphorylation enrichment was 0.56. With FDGKEYDPVEA [MAPRE2_Y167_YF] the phosphorylation enrichment was 0.62. Work on CTTIHYHYMCN [TP53_Y234_N235H] yielded a phosphorylation enrichment of 0.561. TGVRDYIHVVD [GALE_Y241] showed a phosphorylation enrichment of 0.426. ISIFFYAKGQP [MPZ_Y82_H81Y_YF] showed a phosphorylation enrichment of 0.395. With HRDSSYFWEIE [RAF1_Y340_Q335H_YF] the phosphorylation enrichment was 0.579. In the case of GFSRHYEDGFP [CTNND1_Y217_YF], the phosphorylation enrichment is reported as 0.428. Work on MKALGYFAVGT [OPA1_Y498_V502G] yielded a phosphorylation enrichment of 0.432. For PEFMVYKPQME [CCRL2_Y170_V168M], the phosphorylation enrichment was 0.494. In the case of ALARKYHGGGG [HBB_Y146_H144R], the phosphorylation enrichment is reported as 0.365.
